According to paper PMC8930771, “Structural basis of phosphatidylinositol 3-kinase C2α function” (Nature Structural & Molecular Biology, 2022):
Positions count from the first letter of the chain named.

What was measured:
[1] = target: T1, PI3KC2α^ΔN+ΔPX−C2 WT (mouse PI3KC2α amino acids 377–1,400) (mouse, UniProt Q61194 377-1400); test: pull-down; 10 μg immobilized GST fusion protein as bait, 200 μg PI3KC2α^ΔN+ΔPX−C2 WT or RBD mutant in 500 μl binding buffer (20 mM Tris, pH 7.5, 100 mM NaCl), 1 h at 4 °C, three washes; SDS-PAGE and Coomassie blue staining, quantified with ImageJ; conditions: both partners purified
T1 construct: Phosphatidylinositol 3-kinase type 2α (PI3KC2α), mouse, amino acids 377-1,400; lacks the disordered N-terminal region and the distal PX and C-C2 domains; Cloned into pFL10His; The purification paragraph names PI3KC2α^ΔN, ^ΔN+ΔC−C2, ^core 'and related mutants'; also called PI3KC2α^ΔN+ΔPX−C2 Wild-type (WT); source: Sf21 insect cells (baculovirus), purified (Nickel NTA, TEV cleavage, Superdex 200)
T1 sequence (looked up): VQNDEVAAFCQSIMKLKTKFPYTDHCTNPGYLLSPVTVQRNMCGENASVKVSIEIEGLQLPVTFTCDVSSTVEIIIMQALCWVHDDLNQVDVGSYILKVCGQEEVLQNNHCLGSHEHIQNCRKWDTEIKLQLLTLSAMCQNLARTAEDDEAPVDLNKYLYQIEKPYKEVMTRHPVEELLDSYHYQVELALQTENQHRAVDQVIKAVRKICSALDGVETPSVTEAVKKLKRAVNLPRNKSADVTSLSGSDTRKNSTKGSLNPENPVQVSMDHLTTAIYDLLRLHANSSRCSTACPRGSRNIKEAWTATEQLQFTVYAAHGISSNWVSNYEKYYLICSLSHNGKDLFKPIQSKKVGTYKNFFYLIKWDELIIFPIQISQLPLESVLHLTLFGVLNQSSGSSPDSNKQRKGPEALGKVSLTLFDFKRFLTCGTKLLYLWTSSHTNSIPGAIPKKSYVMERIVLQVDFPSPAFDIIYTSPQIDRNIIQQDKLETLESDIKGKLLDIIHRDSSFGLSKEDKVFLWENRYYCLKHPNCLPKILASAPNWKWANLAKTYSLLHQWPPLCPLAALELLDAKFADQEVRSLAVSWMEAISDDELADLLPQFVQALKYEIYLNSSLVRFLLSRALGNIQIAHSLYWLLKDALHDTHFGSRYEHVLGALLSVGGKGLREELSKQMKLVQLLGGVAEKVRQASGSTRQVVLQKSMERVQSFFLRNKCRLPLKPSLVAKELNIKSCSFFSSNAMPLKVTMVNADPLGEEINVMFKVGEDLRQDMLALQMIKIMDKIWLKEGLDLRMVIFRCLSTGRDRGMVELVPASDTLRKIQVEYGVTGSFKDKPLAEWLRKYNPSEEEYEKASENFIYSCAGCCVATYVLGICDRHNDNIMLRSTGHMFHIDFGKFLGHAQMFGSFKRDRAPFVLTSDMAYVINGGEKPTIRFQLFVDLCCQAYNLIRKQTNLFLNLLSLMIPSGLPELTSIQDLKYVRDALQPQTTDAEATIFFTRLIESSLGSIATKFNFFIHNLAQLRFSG

[2] = target: T2, PI3KC2α^ΔN+ΔPX−C2 RBD mutant (K426A, W458A, D461A, D462A) (mouse, UniProt Q61194 377-1400, K426A | W458A | D461A | D462A); test: as above; conditions: both partners purified
T2 construct: Phosphatidylinositol 3-kinase type 2α (PI3KC2α), mouse, amino acids 377-1,400, with four alanine substitutions in the RBD; source: Sf21 insect cells (baculovirus), purified (Nickel NTA, TEV cleavage, Superdex 200)
T2 sequence (looked up): T1 sequence (looked up) with K50A, W82A, D85A, D86A

binding result [1]: binds
binding result [2]: binds
B1: GST-distal C2 (PI3KC2α amino acids 1,561–1,686) (domain or fragment, mouse, UniProt Q61194 1561-1686, looked up)
chain: GAVKLSVSYRNGTLFIMVMHIKDLVTEDGADPNPYVKTYLLPDTHKTSKRKTKISRKTRNPTFNEMLVYSGYSKETLRQRELQLSVLSAESLRENFFLGGITLPLKDFNLSKETVKWYQLTAATYL
notes: PI3KC2α, mouse, C-terminal (distal) C2 domain, amino acids 1,561-1,686; also called GST-C2; GST-tagged C2; source: E. coli (pGEX-4T-1), immobilized GST fusion protein
